Reference: paper PMC12406269 (2025)

B1: C-terminally biotin-tagged VHH_(ISG15-B) (VHH)
VHH: QVQLVETGGGLVEPGGSLRLSCTVSGINFSSQFMAWFRQGPGKQREWVAIDAGEENVGYLDLVEGRFTISRDTARNTLYLQMNSLKPEDTAVYYCNIFPVLPDSRWGQGTQVTVSS
modifications: biotin at the C-terminus (sortase reaction with GGG-Biotin replaces the C-terminal HA tag)
B2: C-terminally biotin-tagged VHH_(ISG15-A) (VHH)
VHH: QLQLVETGGGLVQAGGSLRLSCAASGRTFAGLSVKWFRQPPGAEREWVAHITSTGSSTHYADSVKGRFTISRDYDRNMVYLQMSSLKPEDTAVYYCHASTLWPEKHQDYWGQGIQVTVSS
modifications: biotin at the C-terminus (sortase reaction with GGG-Biotin replaces the C-terminal HA tag)

Columns and labels:
human ISG15 (C78S) [1] = molecular target: T1, human ISG15 (C78S) (human, UniProt P05161 1-157, C78S); experiment: BLI
T1 sequence (P05161 1-157 C78S): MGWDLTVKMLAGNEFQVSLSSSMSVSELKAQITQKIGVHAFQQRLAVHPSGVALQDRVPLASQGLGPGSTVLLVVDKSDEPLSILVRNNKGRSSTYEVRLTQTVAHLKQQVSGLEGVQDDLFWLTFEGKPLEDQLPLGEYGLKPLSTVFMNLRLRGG

human ISG15 (C78S) [2] = molecular target: T1, human ISG15 (C78S); experiment: BLI; remark: listed apart in the source

Row | Binder | koff (human ISG15 (C78S) [1]) | Kd (human ISG15 (C78S) [2])
1 | B1 | 0.00388 s⁻¹ | 2.88 nM
2 | B2 | 0.012 s⁻¹ | 101 nM
